How the values were obtained:
Th2 cells = test: Cytotoxic activity against Th2 cells: cytokine production of PBMC after antibody treatment; assay type: cell-based, human; conditions: antibody 10 μg/mL 20 hours, then anti-CD3/anti-CD28 stimulation 3 days
Protocol: The mononuclear cell layer prepared in the same manner as in Example 13 was washed twice with RPMI-1640 (Wako Pure Chemical Industries) to which 1/10 volume FBS (GIBCO Inc.), 200 mM-L-Glutamine Stock Solution (NACALAI TESQUE, Inc.), 10 mM MEM Non-Essential Amino Acids Solution (GIBCO Inc.), 100 mM Sodium Pyruvate (GIBCO Inc.), 1 M HEPES Buffer Solution (GIBCO Inc.), and 1/100 volume Penicillin-Streptomycin, Liquid (GIBCO Inc.) were added [hereinafter, referred to as peripheral blood mononuclear cell (PBMC) culture medium], thereby preparing a 1×10^7 cells/mL cell suspension.
The prepared cell suspension was seeded in a 96-well plate at 100 μL/well, chLym2 antibody, the humanized anti-human CRTH2 antibody LV0HV1 or the isotype control antibody described in Example 8 was added thereto at a final concentration of 10 μg/mL to cause a reaction in a 5% CO2 incubator at 37° C. for 20 hours.
The cells after the reaction were washed 7 times with a PBMC culture medium to remove the test antibodies thoroughly. Thereafter, the cells were suspended with 100 μL of PBMC culture medium and seeded in a plate in which anti-CD3 antibody OKT3 (Abeam plc.) was immobilized at a concentration of 1 μg/mL. Next, an anti-CD28 antibody (BD Biosciences) prepared to have a concentration of 2 μg/mL was added thereto at 100 μL/well to cause a reaction in a 5% CO2 incubator at 37° C. for 3 days.
The supernatant after the reaction was recovered, and cytokine in the supernatant was quantified using Human IFN-γ Flex Set (BD Biosciences), Human IL-5 Flex Set (BD Biosciences), and Human IL-13 Flex Set (BD Biosciences) according to the attached instructions.

human CRTH2 [1] = target: T1, human CRTH2 (Homo sapiens, UniProt Q9Y5Y4); test: Reactivity in presence of ligand DKPGD2, human CRTH2-expressing 293 EBNA cells; assay type: binding; conditions: DKPGD2 10 μM; antibody 0.3, 1 and 3 μg/mL; relative to absence of DKPGD2; FIG. 13
T1 construct: expressed in transfected cells
T1 sequence (Q9Y5Y4 1-395): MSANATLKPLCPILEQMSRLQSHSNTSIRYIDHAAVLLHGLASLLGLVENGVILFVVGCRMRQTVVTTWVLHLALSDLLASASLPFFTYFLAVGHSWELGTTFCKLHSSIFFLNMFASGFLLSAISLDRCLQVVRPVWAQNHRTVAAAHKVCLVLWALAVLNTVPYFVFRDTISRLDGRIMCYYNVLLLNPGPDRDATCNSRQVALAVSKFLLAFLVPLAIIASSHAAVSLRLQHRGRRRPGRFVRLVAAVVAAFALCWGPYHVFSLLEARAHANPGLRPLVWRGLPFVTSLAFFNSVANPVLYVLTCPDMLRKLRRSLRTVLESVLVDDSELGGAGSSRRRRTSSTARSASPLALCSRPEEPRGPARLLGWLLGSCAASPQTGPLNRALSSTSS
Protocol: Human CRTH2-expressing 293 EBNA cells were established by introducing the human CRTH2 gene expression pAMoh vector prepared in Example 1-(1)-(ii) into 293 EBNA cells (Invitrogen) using Fugene 6 (Promega Corporation) and selecting drug-resistant cells by culture medium formed of 10% FBS, 0.25 mg/mL of G418 (NACALAI TESQUE, Inc.), […] (NACALAI TESQUE, Inc.), and 300 μg/mL of hygromycin B (Wako Pure Chemical Industries) in DMEM.
The human CRTH2-expressing 293 EBNA cells were peeled using 0.02% EDTA solution (NACALAI TESQUE, Inc.), washed with PBS, and suspended with the above-described culture medium. […]
After the cells were washed 5 times with SM, 10 μg/mL of goat anti-Human IgG Alexa 647 (Molecular Probes) diluted with SM was added to wells to which LV0HV1, hu19A2 v52, hu8B1 v1, ch3C12, or ch31A5 was added, 10 μg/mL of goat anti-Rat IgG Alexa 647 (Molecular Probes) diluted with SM was added to wells to which BM16 was added, and 10 μg/mL of goat anti-Mouse IgG Alexa 647 (Molecular Probes) diluted with SM was added to wells to which 301108 was added at a final concentration of 10 μg/mL to cause a reaction at 4° C. for 40 minutes. After the cells were washed again, the cells were suspended with SM, and the fluorescent intensity was analyzed by flow cytometry (BD Biosciences, FACS CantoII).

human CRTH2 [2] = target: T1, human CRTH2; test: Binding activity against Azami-Green fusion human CRTH2-expressing CHO/DG44 cells; conditions: 2-30000 ng/mL, compared with monkey CRTH2; FIG. 21
Protocol: The Azami-Green fusion human CRTH2-expressing CHO/DG44 cells and the cynomolgus monkey CRTH2-expressing CHO/DG44 cells established in Example 24 were peeled using 0.02% EDTA solution (NACALAI TESQUE, Inc.), washed with PBS, and suspended with SM. Next, the cells were seeded in a 96-well plate such that each well had 2×10^5 cells, and humanized Lym2 antibody LV0HV1 or the anti-DNP IgG1 antibody at each of final concentrations 30000, 7500, 1875, 469, 117, 29, 7, and 2 ng/mL were added thereto to cause a reaction at 4° C. for 40 minutes.
After the cells were washed three times with SM, goat anti-Human IgG alexa 647 (Molecular Probes) diluted to a concentration of 10 μg/mL with SM was added thereto at 100 μL/well to perform a reaction at 4° C. for 40 minutes. The cells were washed with SM and resuspended with 100 μL of SM, and the fluorescent intensity was measured by flow cytometry (BD Biosciences, FACS CantoII).
The data was analyzed by FLowJo 7.65 (Tomy Digital Biology Co., Ltd.).

B1: LV0HV1: humanized Lym2 antibody, VL LV0 (SEQ ID NO: 33), VH HV1 (SEQ ID NO: 51) (antibody, V domains shown)
VH: EVQLVESGGGVVQPGRSLRLSCAASGFTFSNYYMAWVRQAPGKGLEWVATISYDGSSTYYRDSVKGRFTISRDNAKNSLYLQMNSLRAEDTATYYCARHRGYYYSGAGYFDYWGQGTMVTVSS
VL: DIVMTQTPLSLPVTPGESASISCRSSQSLEYSDGYTYLEWYLQKPGQSPQVLIYGVSNRFSGVPDRFSGSGSGTDFTLKISRVEAEDVGVYYCFQATHDPLTFGQGTKLEIK
Th2 cells; FIG. 12(A)
  production of IL-5 (Th2 cytokine): reduced
  production of IL-13 (Th2 cytokine): reduced
Th2 cells; FIG. 12(B)
  production of IFN-γ (Th1 cytokine): not changed
Human CRTH2 [1]
  binding to human CRTH2-expressing cells in the presence of DKPGD2: almost not decreased
Human CRTH2 [2]
  binding activity against human CRTH2: substantially the same as each other

Reference: patent US10100120B2, “Antibody which specifically binds to human CRTH2” (KYOWA HAKKO KIRIN CO., LTD, priority 2015, dated 2018)
